Laboratory results reported in patent US20180086841A1 (Merck Sharp & Dohme, published 2018).

Key:
Assay in all cases: flow cytometry on CHO-K1 transfectants;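 further: Anti-hCD27 antibodies tested on transiently transfected CHO-K1 cells bearing hCD27 alanine mutants, 30 min at 4 °C primary incubation, FITC readout excluding debris, dead cells and doublets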
[1] = target: T1, G16A
T1 construct: also called hCD27 G16A
T1 receptor chain: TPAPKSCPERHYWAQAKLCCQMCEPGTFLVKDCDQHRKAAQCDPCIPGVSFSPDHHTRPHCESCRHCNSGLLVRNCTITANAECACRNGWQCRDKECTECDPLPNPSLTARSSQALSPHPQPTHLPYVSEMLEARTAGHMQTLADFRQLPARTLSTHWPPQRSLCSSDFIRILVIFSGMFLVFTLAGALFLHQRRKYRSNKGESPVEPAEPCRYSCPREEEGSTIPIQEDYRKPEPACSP
Protocol: (§1) The hCD27 variants that were tested are listed. Amino acids correspond to the UniProt P26842-1 sequence. Amino acids 1-20 constitute the signal peptide. Binding is expressed as the geometric mean of the FITC signal, relative to antibody binding to hCD27, which was set at 100%.
(§2) The ability of several anti-hCD27 antibodies to bind to a series of hCD27 alanine mutants was determined using CHO-K1 cells, transiently transfected pCI-neo empty vector, pCI-neo.hCD27 and several pCI-neo.CD27Ala mutant constructs.
(§3) Detached cells were transferred to 96 wells round-bottomed well plates at approximately 1.2×10⁵ cells/well. After spinning down the cells, discarding the supernatants and re-suspending the cells in the residual volume, the primary antibodies were added and incubated for 30 minutes at 4° C. Cells were washed three times with DPBS/BSA 1%, followed by centrifugation, discarding of the supernatants and re-suspension in the residual volume. […] After washing once, antibody binding was detected using the HTS plate reader (FACS Canto II) and FlowJo software for data analysis. Debris, dead cells and doublets were excluded from the analysis. Binding was expressed as the geometric mean of the FITC signal, relative to antibody binding to hCD27, which was set at 100%.

[2] = target: T2, S63A
T2 construct: also called hCD27 S63A
T2 receptor chain: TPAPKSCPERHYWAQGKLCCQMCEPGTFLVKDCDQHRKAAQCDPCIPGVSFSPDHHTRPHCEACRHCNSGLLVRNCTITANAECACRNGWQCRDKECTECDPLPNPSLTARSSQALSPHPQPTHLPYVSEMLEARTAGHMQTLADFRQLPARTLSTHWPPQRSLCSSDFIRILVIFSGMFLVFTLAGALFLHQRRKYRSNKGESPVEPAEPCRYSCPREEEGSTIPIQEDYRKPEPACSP
Protocol: as §1, §2, §3

[3] = target: T3, R93A
T3 construct: also called hCD27 R93A
T3 receptor chain: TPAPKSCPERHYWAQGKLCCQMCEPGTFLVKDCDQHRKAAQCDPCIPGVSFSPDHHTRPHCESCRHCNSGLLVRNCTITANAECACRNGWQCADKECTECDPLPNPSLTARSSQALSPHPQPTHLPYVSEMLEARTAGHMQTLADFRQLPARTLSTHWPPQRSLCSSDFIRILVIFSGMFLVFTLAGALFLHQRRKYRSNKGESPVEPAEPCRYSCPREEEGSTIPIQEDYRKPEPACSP
Protocol: as §1, §2, §3

[4] = target: T4, I46A
T4 construct: also called hCD27 I46A
T4 receptor chain: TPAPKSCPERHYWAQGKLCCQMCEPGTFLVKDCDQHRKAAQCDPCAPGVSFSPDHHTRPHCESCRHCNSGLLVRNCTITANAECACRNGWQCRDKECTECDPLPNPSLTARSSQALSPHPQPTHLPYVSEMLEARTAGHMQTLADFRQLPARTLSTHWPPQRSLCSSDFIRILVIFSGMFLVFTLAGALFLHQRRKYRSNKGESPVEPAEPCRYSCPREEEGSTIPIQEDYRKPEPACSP
Protocol: as §1, §2, §3

[5] = target: T5, F28A
T5 construct: also called hCD27 F28A
T5 receptor chain: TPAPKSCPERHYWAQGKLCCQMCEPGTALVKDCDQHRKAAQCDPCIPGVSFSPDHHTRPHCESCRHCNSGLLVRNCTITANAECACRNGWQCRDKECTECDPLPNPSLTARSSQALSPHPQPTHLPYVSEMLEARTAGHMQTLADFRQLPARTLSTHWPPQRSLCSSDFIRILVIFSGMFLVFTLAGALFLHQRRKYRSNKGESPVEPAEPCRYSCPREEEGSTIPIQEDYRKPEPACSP
Protocol: as §1, §2, §3

[6] = target: T6, H60A
T6 construct: also called hCD27 H60A
T6 receptor chain: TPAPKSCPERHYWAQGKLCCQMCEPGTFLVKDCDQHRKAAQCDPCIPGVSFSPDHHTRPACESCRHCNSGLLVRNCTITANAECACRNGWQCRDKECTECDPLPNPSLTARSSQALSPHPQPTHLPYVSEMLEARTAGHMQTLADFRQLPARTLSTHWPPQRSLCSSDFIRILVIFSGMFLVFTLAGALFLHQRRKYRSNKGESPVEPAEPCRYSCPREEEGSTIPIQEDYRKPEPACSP
Protocol: as §1, §2, §3

[7] = target: T7, P44A
T7 construct: also called hCD27 P44A
T7 receptor chain: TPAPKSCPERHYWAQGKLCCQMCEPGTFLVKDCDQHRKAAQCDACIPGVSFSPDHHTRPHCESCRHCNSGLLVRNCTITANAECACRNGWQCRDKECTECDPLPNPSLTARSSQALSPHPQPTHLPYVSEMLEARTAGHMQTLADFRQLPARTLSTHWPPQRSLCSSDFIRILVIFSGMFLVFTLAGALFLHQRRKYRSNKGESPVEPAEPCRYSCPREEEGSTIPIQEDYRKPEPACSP
Protocol: as §1, §2, §3

[8] = target: T8, W13A
T8 construct: also called hCD27 W13A
T8 receptor chain: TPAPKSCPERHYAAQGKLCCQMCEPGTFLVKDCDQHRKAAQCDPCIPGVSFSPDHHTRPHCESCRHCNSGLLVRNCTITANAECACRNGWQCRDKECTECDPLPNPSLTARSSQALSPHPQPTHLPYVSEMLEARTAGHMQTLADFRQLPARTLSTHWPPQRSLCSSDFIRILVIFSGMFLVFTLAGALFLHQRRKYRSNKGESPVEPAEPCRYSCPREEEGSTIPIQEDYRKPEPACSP
Protocol: as §1, §2, §3

[9] = target: T9, R87A
T9 construct: also called hCD27 R87A
T9 receptor chain: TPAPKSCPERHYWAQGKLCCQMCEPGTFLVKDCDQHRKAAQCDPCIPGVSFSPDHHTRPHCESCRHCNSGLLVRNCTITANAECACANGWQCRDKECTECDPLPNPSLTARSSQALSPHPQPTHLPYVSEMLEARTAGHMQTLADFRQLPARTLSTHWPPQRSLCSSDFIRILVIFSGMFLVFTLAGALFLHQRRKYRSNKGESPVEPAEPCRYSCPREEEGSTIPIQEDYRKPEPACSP
Protocol: as §1, §2, §3

[10] = target: T10, N88A
T10 construct: also called hCD27 N88A
T10 receptor chain: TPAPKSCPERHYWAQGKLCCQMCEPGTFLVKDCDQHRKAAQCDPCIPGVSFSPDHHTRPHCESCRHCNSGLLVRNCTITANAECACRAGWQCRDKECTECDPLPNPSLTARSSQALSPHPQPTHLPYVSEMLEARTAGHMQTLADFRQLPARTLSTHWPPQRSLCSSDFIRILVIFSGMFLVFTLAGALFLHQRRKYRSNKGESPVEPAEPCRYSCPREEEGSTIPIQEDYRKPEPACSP
Protocol: as §1, §2, §3

binding, WT hCD27 = 100 (GM FITC) [1]: 141%
binding, WT hCD27 = 100 (GM FITC) [2]: 104%
binding, WT hCD27 = 100 (GM FITC) [3]: 131%
binding, WT hCD27 = 100 (GM FITC) [4]: 81.9%
binding, WT hCD27 = 100 (GM FITC) [5]: 59.4%
binding, WT hCD27 = 100 (GM FITC) [6]: 82.6%
binding, WT hCD27 = 100 (GM FITC) [7]: 68.7%
binding, WT hCD27 = 100 (GM FITC) [8]: 71.4%
binding, WT hCD27 = 100 (GM FITC) [9]: 114%
binding, WT hCD27 = 100 (GM FITC) [10]: 132%
B1: hCD27.15-6B (antibody, human IgG4 S228P, kappa, V domains shown)
VH: QVQLVQSGAEVKKPGASVKVSCKASGFIIKATYMHWVRQAPGQRLEWMGRIDPANGETKYDPKFQVRVTITADTSASTAYMELSSLRSEDTAVYYCARYAWYFDVWGQGTLVTVSS
VL: DIQMTQSPSSLSASVGDRVTITCRASENIYSFLAWYQQKPGKAPKLLIYHAKTLAEGVTSRFSGSGSGTDFTLTISSLQPEDSATYYCQHYYGSPLTFGQGTRLEIKR
notes: also called hCD27.15 (humanized 6B); humanized hCD27.15 (human IgG4, Clone 6B)
